Assay results reported in patent US20130137855A1 (CSL, published 2013).
Values belong to the molecule of their own block, whether it stands above or below them.

Legend:
[1] = molecular target: Soluble human IL-3Rα (human) (UniProt P26951); experiment: SPR (Biacore), soluble human IL-3Rα immobilized on CM-5 chip, scFv injected, 25 °C
Soluble human IL-3Rα [2] = molecular target: T1, Soluble human IL-3Rα (human, UniProt P26951 20-305, limits assumed); experiment: SPR (Biacore), mAb captured by anti-human Fc antibody, soluble human IL-3Rα injected, 25 °C
T1 construct: The assay used 'soluble human IL-3Rα'; also called IL-3Rα chain; interleukin 3 receptor alpha chain
T1 sequence: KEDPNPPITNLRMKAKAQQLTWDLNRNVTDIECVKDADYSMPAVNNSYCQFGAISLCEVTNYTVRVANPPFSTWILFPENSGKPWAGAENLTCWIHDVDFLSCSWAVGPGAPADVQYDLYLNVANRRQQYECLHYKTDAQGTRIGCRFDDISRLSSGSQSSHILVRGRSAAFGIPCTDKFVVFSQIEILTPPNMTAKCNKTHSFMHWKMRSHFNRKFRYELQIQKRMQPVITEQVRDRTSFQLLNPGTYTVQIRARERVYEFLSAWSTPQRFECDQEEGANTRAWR

Soluble human IL-3Rα [3] = molecular target: T1, Soluble human IL-3Rα; experiment: SPR (Biacore), mAb captured by anti-mouse Fc antibody, soluble human IL-3Rα injected, 25 °C

Molecule: parental murine mAb (7G3) (antibody)
Kd (Soluble human IL-3Rα [3]): 0.92 nM

B1: CSL362B (antibody, human IgG1, kappa, V domains shown)
VH: EVQLVQSGAEVKKPGESLKISCKGSGYSFTDYYMKWARQMPGKGLEWMGDIIPSNGATFYNQKFKGQVTISADKSISTTYLQWSSLKASDTAMYYCARSHLLRASWFAYWGQGTMVTVSS
VL: DIVMTQSPDSLAVSLGERATINCESSQSLLNSGNQKNYLTWYQQKPGQPPKPLIYWASTRESGVPDRFSGSGSGTDFTLTISSLQAEDVAVYYCQNDYSYPYTFGQGTKLEIKR
modifications: Heavy chain constant region is afucosylated
notes: Expressed in FUT8-knock-out CHO cells (Potelligent)
Kd (Soluble human IL-3Rα [2]): ~0.43 nM

The next lines start with the values.

Kd [1]: 2.2 nM
Molecule: CSL362 scFv

Kd (Soluble human IL-3Rα [2]): 1 nM
Molecule: chimeric form of parental murine mAb (human IgG1) (antibody)
